Results published in article PMC7822592, “The half-life of the bone-derived hormone osteocalcin is regulated through O-glycosylation in mice, but not in humans” (eLife, 2020).
No end group written: not given here.

Legend:
[1] = Ex vivo half-life of mouse OCN in plasma; type: in vitro ADME; conditions: 100 ng/ml
Procedure: The mouse OCN ex vivo half-life assays were performed with fresh plasma (lithium heparin) collected from four independent Bglap-/- mice. Glycosylated OCN produced in HEK293 cells and non-glycosylated OCN, produced in bacteria as previously described ([Ferron et al., 2012]), were incubated at 100 ng/ml in plasma at 37°C and OCN level was measured at indicated time points using the total mouse OCN ELISA assay described previously ([Ferron et al., 2010b]). […] The detection antibody is a goat polyclonal antibody directed against the C-terminal region (amino acids 26 to 46) of mouse OCN (anti-CTERM OCN). This assay detects with the same sensitivity glycosylated and non-glycosylated mouse OCN at concentration of 50 ng/ml or less (Figure 3—figure supplement 2). Therefore, all samples were diluted to be in this range before being measured by the ELISA. Human OCN half-life assay was performed ex vivo using Bglap-/- mice plasma and human OCN at 60 ng/ml. Human OCN level was measured at different time point using the human ucOCN ELISA described above. At the experiment start point (T0), an aliquot of plasma was diluted in ELISA assay buffer and kept on ice for OCN measurements. In some experiments, plasma was heat-inactivated for 30 min at 56°C, or treated with EDTA (10 mM, Wisent), phenylmethylsulfonyl fluoride (PMSF, 10 mM, Sigma), pepstatin A (Pep A, 10 μM, Sigma) which inhibits aspartic proteases (pepsin, cathepsin D, renin, chymosin), RVKR (Dec-RVKR-CMK, 50 μM; Tocris) or talabostat (10 mM; Tocris). Results are calculated in percentage relative to the initial concentration of non-glycosylated and glycosylated OCN respectively.

human plasmin = biological target: T1, human plasmin (Homo sapiens, UniProt P00747); experiment: Plasmin enzymatic assay on OCN in heat-inactivated plasma; type: in vitro ADME; conditions: for % OCN from initial: heat-inactivated Bglap-/- plasma diluted two times in 100 mM Tris pH 7.5, 50 ng/ml, ELISA; for % OCN from initial / % OCN from initial in plasmin (0.3 U/ml): 2hrs, 37°C; for % OCN from initial in plasmin (0.3 U/ml): inset graph, heat-inactivated Bglap-/- plasma, 50 ng/ml
T1 construct: different concentration of human plasmin (Sigma); purchased Sigma P1867
T1 sequence (P00747 581-810 limits assumed): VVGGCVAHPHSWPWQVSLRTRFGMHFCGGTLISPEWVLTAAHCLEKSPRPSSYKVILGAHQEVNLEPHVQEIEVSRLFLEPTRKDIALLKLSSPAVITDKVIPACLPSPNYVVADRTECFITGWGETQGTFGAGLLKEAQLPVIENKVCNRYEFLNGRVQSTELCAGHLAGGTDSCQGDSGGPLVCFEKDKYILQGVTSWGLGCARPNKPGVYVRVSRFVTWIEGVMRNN
T1 sequence (P00747 97-580 partner limits assumed): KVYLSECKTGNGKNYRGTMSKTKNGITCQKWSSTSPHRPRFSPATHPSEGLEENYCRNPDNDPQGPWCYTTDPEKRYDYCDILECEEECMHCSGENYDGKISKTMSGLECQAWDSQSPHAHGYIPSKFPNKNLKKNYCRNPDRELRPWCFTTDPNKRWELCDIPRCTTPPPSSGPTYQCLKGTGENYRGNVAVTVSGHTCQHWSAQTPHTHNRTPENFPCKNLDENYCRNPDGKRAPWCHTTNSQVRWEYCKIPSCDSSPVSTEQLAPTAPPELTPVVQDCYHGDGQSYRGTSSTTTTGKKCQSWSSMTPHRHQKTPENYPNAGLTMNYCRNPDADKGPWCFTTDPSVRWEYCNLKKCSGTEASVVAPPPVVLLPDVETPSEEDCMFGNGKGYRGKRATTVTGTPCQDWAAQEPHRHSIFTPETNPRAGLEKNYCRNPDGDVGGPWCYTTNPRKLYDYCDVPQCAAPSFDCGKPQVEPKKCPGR
Procedure: The plasmin enzymatic assay was performed on plasma ex vivo in the presence of non-glycosylated OCN and glycosylated OCN as follows: plasma from Bglap-/- mice was heat-inactivated for 30 min at 56°C, then diluted two times in the enzyme assay buffer containing 100 mM Tris buffer pH 7.5. Non-glycosylated OCN or glycosylated OCN was incubated at 50 ng/ml in the diluted plasma for two hours in the presence of different concentration of human plasmin (Sigma) ranging from 0 to 0.3 U/ml. After two hours, OCN level was measured using total mouse OCN ELISA. Results are represented as percentage of initial concentration of non-glycosylated and glycosylated OCN respectively.

Q: For “ucOCN: Non-glycosylated uncarboxylated mouse osteocalcin produced in bacteria (YLGASVPSPDPLEPTREQCELNPACDELSDQYGLKTAYKRIYGITI; ends and bridges not checked; cysteine pairing not given here; UniProt P86546 50-95, looked up)”, which “% OCN from initial” value ([1]; Figure 3D, Bglap-/- mouse plasma, T0, ELISA, replicate 2) is on record?
A: The value was 100.0%.

Q: What about the “% OCN from initial” value ([1]; Figure 3D, Bglap-/- mouse plasma, T0, ELISA, replicate 3) of the same substance?
A: Its value is 98.7%.

Q: What about the “% OCN from initial” value ([1]; Figure 3 supplement 3A, 3.5% BSA in saline solution, 2 hours at 37 °C, replicate 1) of the same substance?
A: Its value is 108.8%.

Q: And the “% OCN from initial” value ([1]; Figure 3 supplement 3A, 3.5% BSA in saline solution, 2 hours at 37 °C, replicate 2)?
A: Its value is 110.0%.

Q: What about the “% OCN from initial” value ([1]; Figure 3 supplement 3A, 3.5% BSA in saline solution, 2 hours at 37 °C, replicate 3) of the same substance?
A: The value was 106.2%.

Q: What about the “% OCN from initial” value ([1]; Figure 3 supplement 3A, Bglap-/- mouse plasma, 4°C, T=2hours, replicate 1) of the same substance?
A: The value was 94.9%.

Q: What about the “% OCN from initial” value ([1]; Figure 3 supplement 3A, Bglap-/- mouse plasma, 4°C, T=2hours, replicate 2) of the same substance?
A: The value was 99.7%.

Q: What about the “% OCN from initial” value ([1]; Figure 3 supplement 3A, Bglap-/- mouse plasma, 4°C, T=2hours, replicate 3) of the same substance?
A: The value was 100.1%.

Q: What about the “% OCN from initial” value ([1]; Figure 3 supplement 3A, Bglap-/- mouse plasma, 2 hours at 37 °C, Pepstatin A (10uM), replicate 1) of the same substance?
A: The value was 52.2%.

Q: What about the “% OCN from initial” value ([1]; Figure 3 supplement 3A, Bglap-/- mouse plasma, 2 hours at 37 °C, Pepstatin A (10uM), replicate 2) of the same substance?
A: The value was 57.4%.

Q: And the “% OCN from initial” value ([1]; Figure 3 supplement 3A, Bglap-/- mouse plasma, 2 hours at 37 °C, Pepstatin A (10uM), replicate 3)?
A: Its value is 69.1%.

Q: What about the “% OCN from initial” value ([1]; Figure 3 supplement 3A, Bglap-/- mouse plasma, 2 hours at 37 °C, RVKR (50uM), replicate 1) of the same substance?
A: The value was 56.2%.

Q: What about the “% OCN from initial” value ([1]; Figure 3 supplement 3A, Bglap-/- mouse plasma, 2 hours at 37 °C, RVKR (50uM), replicate 2) of the same substance?
A: The value was 66.8%.

Q: And the “% OCN from initial” value ([1]; Figure 3 supplement 3A, Bglap-/- mouse plasma, 2 hours at 37 °C, RVKR (50uM), replicate 3)?
A: Its value is 78.0%.

Q: What about the “% OCN from initial” value ([1]; Figure 3 supplement 3A, Bglap-/- mouse plasma, 2 hours at 37 °C, vehicle (V), replicate 1) of the same substance?
A: Its value is 48.4%.

Q: And the “% OCN from initial” value ([1]; Figure 3 supplement 3A, Bglap-/- mouse plasma, 2 hours at 37 °C, vehicle (V), replicate 2)?
A: Its value is 65.6%.

Q: And the “% OCN from initial” value ([1]; Figure 3 supplement 3A, Bglap-/- mouse plasma, 2 hours at 37 °C, vehicle (V), replicate 3)?
A: Its value is 67.2%.

Q: What about the “% OCN from initial” value ([1]; Figure 3 supplement 3A, Bglap-/- mouse plasma, T0, replicate 1) of the same substance?
A: The value was 107.3%.

Q: What about the “% OCN from initial” value ([1]; Figure 3 supplement 3A, Bglap-/- mouse plasma, T0, replicate 2) of the same substance?
A: Its value is 96.2%.

Q: And the “% OCN from initial” value ([1]; Figure 3 supplement 3A, Bglap-/- mouse plasma, T0, replicate 3)?
A: The value was 96.6%.

Q: And the “% OCN from initial” value ([1]; Figure 3 supplement 3B, Bglap-/- mouse plasma, 4°C, T=2hours, replicate 1)?
A: Its value is 108.8%.

Q: What about the “% OCN from initial” value ([1]; Figure 3 supplement 3B, Bglap-/- mouse plasma, 4°C, T=2hours, replicate 2) of the same substance?
A: The value was 99.4%.

Q: And the “% OCN from initial” value ([1]; Figure 3 supplement 3B, Bglap-/- mouse plasma, 4°C, T=2hours, replicate 3)?
A: Its value is 94.3%.

Q: What about the “% OCN from initial” value ([1]; Figure 3 supplement 3B, Bglap-/- mouse plasma, 2 hours at 37 °C, 10 mM EDTA, replicate 1) of the same substance?
A: The value was 37.4%.

Q: What about the “% OCN from initial” value ([1]; Figure 3 supplement 3B, Bglap-/- mouse plasma, 2 hours at 37 °C, 10 mM EDTA, replicate 2) of the same substance?
A: Its value is 24.3%.

Q: And the “% OCN from initial” value ([1]; Figure 3 supplement 3B, Bglap-/- mouse plasma, 2 hours at 37 °C, 10 mM EDTA, replicate 3)?
A: The value was 37.4%.

Q: What about the “% OCN from initial” value ([1]; Figure 3 supplement 3B, Bglap-/- mouse plasma, 2 hours at 37 °C, vehicle (V), replicate 1) of the same substance?
A: Its value is 34.6%.

Q: What about the “% OCN from initial” value ([1]; Figure 3 supplement 3B, Bglap-/- mouse plasma, 2 hours at 37 °C, vehicle (V), replicate 2) of the same substance?
A: Its value is 23.3%.

Q: What about the “% OCN from initial” value ([1]; Figure 3 supplement 3B, Bglap-/- mouse plasma, 2 hours at 37 °C, vehicle (V), replicate 3) of the same substance?
A: Its value is 37.9%.

Q: And the “% OCN from initial” value ([1]; Figure 3 supplement 3B, Bglap-/- mouse plasma, T0, replicate 1)?
A: Its value is 101.3%.

Q: And the “% OCN from initial” value ([1]; Figure 3 supplement 3B, Bglap-/- mouse plasma, T0, replicate 2)?
A: The value was 100.0%.

Q: What about the “% OCN from initial” value ([1]; Figure 3 supplement 3B, Bglap-/- mouse plasma, T0, replicate 3) of the same substance?
A: The value was 98.7%.

Q: And the “half-life in plasma ex vivo” value ([1]; fresh Bglap-/- mouse plasma (lithium heparin), 37°C, total mouse OCN ELISA, n = 4 plasma)?
A: Its value is ~ 120 min.

Q: And the “% OCN from initial” value (human plasmin; plasmin 0 U/ml, replicate 1)?
A: Its value is 91.2%.

Q: And the “% OCN from initial” value (human plasmin; plasmin 0 U/ml, replicate 2)?
A: Its value is 108.8%.

Q: And the “% OCN from initial” value (human plasmin; plasmin 0.024 U/ml, replicate 1)?
A: Its value is 69.0%.

Q: And the “% OCN from initial” value (human plasmin; plasmin 0.024 U/ml, replicate 2)?
A: Its value is 80.5%.

Q: And the “% OCN from initial” value (human plasmin; plasmin 0.12 U/ml, replicate 1)?
A: Its value is 38.3%.

Q: What about the “% OCN from initial” value (human plasmin; plasmin 0.12 U/ml, replicate 2) of the same substance?
A: The value was 44.1%.

Q: What about the “% OCN from initial” value (human plasmin; plasmin 0.3 U/ml, replicate 1) of the same substance?
A: The value was 11.5%.

Q: And the “% OCN from initial” value (human plasmin; plasmin 0.3 U/ml, replicate 2)?
A: Its value is 15.5%.

Q: And the “% OCN from initial in plasmin (0.3 U/ml)” value (human plasmin; replicate 1)?
A: Its value is 11.5%.

Q: And the “% OCN from initial in plasmin (0.3 U/ml)” value (human plasmin; replicate 2)?
A: Its value is 15.5%.

Q: And the “% OCN from initial in plasmin (0.3 U/ml)” value (human plasmin; replicate 3)?
A: Its value is 12.3%.

Q: What about the “% OCN from initial in plasmin (0.3 U/ml)” value (human plasmin; replicate 4) of the same substance?
A: The value was 11.4%.

Q: And the “% OCN from initial in plasmin (0.3 U/ml)” value (human plasmin; replicate 5)?
A: Its value is 9.9%.

Q: And the “reduction of concentration by plasmin” value (human plasmin; two hours)?
A: Its value is “more than 90%”.
